{"source": "patent US20250312416A1", "about": "“METHOD AND PHARMACEUTICAL COMPOSITION FOR CARTILAGE REGENERATION” (FAR EASTERN MEMORIAL HOSPITAL, priority 2024, published 2025)", "molecules": {"B1": {"name": "CXCL14: small cytokine belonging to the CXC chemokine family, also known as BRAK; used as recombinant protein (protein, UniProt O95715 35-111, looked up)", "C-X-C motif chemokine 14": "SKCKCSRKGPKIRYSDVKKLEMKPKYPHCEEKMVIITTKSVSRYRGQEHCLHPKLQSTKRFIKWYNAWNEKRRVYEE"}}, "key": {"[1]": {"system": "tibial articular cartilage of WT mice after ACLT", "assay": "ACLT-induced OA mouse model, Safranin O / collagen II staining and OARSI score (CXCL14 protein)", "assay_type": "in vivo", "details": "for OARSI score: ACLT group 5.5, sham group 0.17"}, "[2]": {"system": "IPFP-MSC from OA patients", "assay": "Alcian blue staining of chondrogenic pellets (GAG), IPFP-MSC", "assay_type": "cell-based, human", "details": "IPFP-MSC during chondrogenesis, day 3", "experimental": "(§1) The GSE140861 microarray database was used for analyzing the potential genes from human bone marrow cells at different time points during chondrogenesis. Whole-genome expression analysis was carried out using Illumina (CA) Human Ref-8v3 or Human HT-12 v4 BeadArrays™. It was first selected the secreted protein from this database and further verified the functions of the candidate genes. The numbers of significant differences in gene expressions of different time points from human bone marrow stem cells during chondrogenesis. […] Alcian blue staining analyzed the chondrogenic differentiation of pellets with varying ratios of IPFP-MSC. CXCL14 increased the GAG deposition in IPFP-MSC during chondrogenesis on day 3. FIG. 1C provides the fluorescence confocal microscopy images showing IPFP-MSC spheroids from OA patients treated with CXCL14 for 7 days; wherein the nuclei were stained with DAPI (blue), and merged images display SOX9 (red), type II collagen (green), and aggrecan (light blue) labeling. […] The chondrogenic progenitor cells in the human IPFP-MSC from OA patients were detected using SOX9 and Collagen type II biomarkers. MSCs were assessed by flow cytometry for SOX9 and Collagen type II biomarkers indicative of human MSCs on day 1. In addition, Alcian blue staining analyzed the chondrogenic differentiation of pellets with IPFP-MSC. […]"}, "[3]": {"system": "IPFP-MSC spheroids from OA patients", "assay": "Fluorescence confocal microscopy of IPFP-MSC spheroids (SOX9, type II collagen, aggrecan)", "assay_type": "cell-based, human", "details": "MSC spheroids during chondrogenesis, 7 days", "experimental": "as §1"}, "ADSC spheroids": {"system": "ADSC spheroids", "assay": "Immunofluorescence / confocal microscopy of chondrogenic proteins in ADSC spheroids", "assay_type": "cell-based, human", "details": "ADSC spheroids, 7 days", "experimental": "Both side views (observed in the x and z plane) and bottom views (observed in the […]) of the images are provided. The scale bar is set at 500 μm.\nADSCs were treated with CXCL14-P, CXCL14-P1, or CXCL14-P2, respectively, at a concentration of 10 ng for 24 hours, after which the medium was replaced with fresh peptide-free medium. On day 7, total RNA was extracted, and real-time PCR analysis was performed to assess the expression levels of key chondrogenic markers, including ACAN, COL2A1, SOX9, and COMP. Gene expression levels were quantified using a LightCycler system (Roche Applied Science), with fold changes calculated relative to untreated control ADSCs. […] Immunofluorescence staining was performed to detect Collagen Type II, SOX9, COMP, and nuclei (Hoechst 33342) in 3D ADSC spheroids (middle panel).\n(FIG. 3). […] Moreover, fluorescence confocal microscopy was employed to detect protein patterns and confirm the levels of SOX9, type II collagen, and aggrecan proteins in ADSC spheroids. […] Finally, to investigate whether the CXCR4 receptor of CXCL12/CXCL14 confers chondrogenic signaling during chondrogenesis, we treated ADSCs with a CXCR4 agonist for 7 days.\nExtracellular vesicles (EVs) derived from MSCs hold significant potential for repairing damaged tissues. In this study, we explored whether EVs from ADSCs could effectively enhance chondrogenesis and promote cartilage repair. Immunofluorescence staining was used to assess protein levels of Collagen Type II (green), SOX9 (red), COMP (indigo), and Hoechst 33342 (gray) in 3D ADSC spheroids treated with MSC-EVs derived from CXCL14 peptide-primed ADSCs (CXCL14-P-MSC-EVs) at various time points. […] To further explore the cartilage repair functions of EVs from CXCL14-P-treated ADSCs and the encapsulation of the transcription factor SOX9 within MSCs and purified EVs, we performed in vivo studies."}}, "data": [{"molecule": "B1", "values": [{"measurement": "OARSI score", "setting": "[1]; CXCL14 10 ng", "value": 2.7}, {"measurement": "OARSI score", "setting": "[1]; CXCL14 20 ng", "value": 1}, {"measurement": "cartilage repair (staining GAG content and type II collagen)", "setting": "[1]; dose-dependent, ACLT-induced OA", "value": "can stimulate cartilage repair"}, {"measurement": "GAG deposition (Alcian blue)", "setting": "[2]", "value": "increased"}, {"measurement": "levels of SOX9, type II collagen, and aggrecan", "setting": "[3]", "value": "elevated levels"}, {"measurement": "expression of SOX9, type II collagen, and aggrecan", "setting": "ADSC spheroids", "value": "notably induced"}]}]}
